In US9730980B2:

Molecular target: NR1D1 (pCDNA-Nr1d1 expression vector)

luciferase activity driven by the human G6pase promoter: 14.5%
Substance: r-h-apoA-IV
